*1 amine or outer side, *2 acyl side, *3 side chain or, on linkers, in order; H or OH if unused. Where a SMILES comes first, the peptide text is derived from it. Bridges are numbered along the chain shown (N, C = ends). Where no end group is shown, it is not given here. [ ]: non-standard residue; d: D form. NMeNva(5-imidazol-1-yl) = CN[C@@H](CCCn1ccnc1)C(=O)O; Ala(pyrimidin-5-yl) = N[C@@H](Cc1cncnc1)C(=O)O; NMePhe(3-Me) = CN[C@@H](Cc1cccc(C)c1)C(=O)O; X45 = CN([C@@H](Cc1ccncc1F)C(=O)[*:2])[*:1]; X46 = O=C([C@H](Cc1cccnc1F)N[*:1])[*:2]; NMeAha = CN[C@@H](CCN=[N+]=[N-])C(=O)O; Nle(5,5-F2) = CC(F)(F)CC[C@H](N)C(=O)O; Phe(3-F) = N[C@@H](Cc1cccc(F)c1)C(=O)O; X2 = O=C([C@H](Cc1ccccc1F)O[*:1])[*:2]; Ala(cPent) = N[C@@H](CC1CCCC1)C(=O)O; Phe(2-F) = N[C@@H](Cc1ccccc1F)C(=O)O; NMe3Pal = CN[C@@H](Cc1cccnc1)C(=O)O; X1 = O=C(C12CC(CN[*:1])(C1)C2)[*:2]; Aha = [N-]=[N+]=NCC[C@H](N)C(=O)O; Ala(cPr) = N[C@@H](CC1CC1)C(=O)O; NMeF = CN[C@@H](Cc1ccccc1)C(=O)O; PhLac = O=C(O)[C@@H](O)Cc1ccccc1; 3Pal = N[C@@H](Cc1cccnc1)C(=O)O; Ahp(2) = CCCCC[C@H](N)C(=O)O; Cba = N[C@@H](CC1CCC1)C(=O)O; NMeNle = CCCC[C@H](NC)C(=O)O; hLeu = CC(C)CC[C@H](N)C(=O)O; NMeA = CN[C@@H](C)C(=O)O; Nle = CCCC[C@H](N)C(=O)O
target: phosphorylation levels of ERK1/2 in AsPC-1 (homozygous KRAS-G12D) cells (Homo sapiens, UniProt P01116, G12D); assay: Cellular phospho-ERK assay in AsPC-1 cells (Alpha Screen), assay medium without fetal bovine serum; assay type: cell-based; details: phospho-ERK AlphaScreen, 18 h;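 note: signal taken as phospho-ERK over total ERK per well, both detected in one multiplex bead assay, EC50 from four-parameter logistic fit of dose-response curves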

| Molecule | EC50 [nM] |
| --- | --- |
| Cc1cccc(C[C@H]2C(=O)NCC34CC(C3)(C4)C(=O)O[C@@H](Cc3ccccc3)C(=O)N(C)[C@@H](C)C(=O)N[C@@H](Cc3cncnc3)C(=O)N[C@@H](CC3CC3)C(=O)N[C@@H](Cc3ccccc3F)C(=O)N[C@@H](CCC(C)(F)F)C(=O)N2C)c1 [compound 275, cyclo(FLac-NMeA-PyrimAla-cPrA-Phe2F-Nle3F2-NMePhe3Me-amBCP)] (cyclo([Ala(cPr)][Phe(2-F)][Nle(5,5-F2)][NMePhe(3-Me)][X1][PhLac][NMeA][Ala(pyrimidin-5-yl)])) | 924 |
| CC(C)CC[C@@H]1NC(=O)[C@H](Cc2ccccc2F)NC(=O)[C@H](CC2CC2)NC(=O)[C@H](Cc2cncnc2)NC(=O)[C@H](C)N(C)C(=O)[C@H](Cc2ccccc2)OC(=O)C23CC(CNC(=O)[C@H](Cc4ccncc4F)N(C)C1=O)(C2)C3 [compound 337, cyclo(FLac-NMeA-PyrimAla-cPrA-Phe2F-hL-NMe4Pal2F-amBCP)] (cyclo([Ala(cPr)][Phe(2-F)][hLeu][X45][X1][PhLac][NMeA][Ala(pyrimidin-5-yl)])) | 3350 |
| CCCC[C@@H]1NC(=O)[C@H](Cc2cccnc2)NC(=O)[C@H](C)N(C)C(=O)[C@H](Cc2ccccc2)OC(=O)C23CC(CNC(=O)[C@H](Cc4cccnc4)N(C)C(=O)[C@H](CCC(C)C)NC(=O)[C@H](Cc4ccccc4F)NC1=O)(C2)C3 [compound 124, cyclo(FLac-NMeA-3Pal-Nle-Phe2F-hL-NMe3Pal-amBCP)] (cyclo([3Pal][Nle][Phe(2-F)][hLeu][NMe3Pal][X1][PhLac][NMeA])) | 4650 |
| CCCC[C@@H]1NC(=O)[C@H](Cc2cccnc2)NC(=O)[C@H](CCN=[N+]=[N-])N(C)C(=O)[C@H](Cc2ccccc2)OC(=O)C23CC(CNC(=O)[C@H](Cc4cccnc4)N(C)C(=O)[C@H](CCCC)NC(=O)[C@H](Cc4ccccc4F)OC1=O)(C2)C3 [compound 238, cyclo(FLac-NMeDabN3-3Pal-Nle-F2FLac-Nle-NMe3Pal-amBCP)] (cyclo([3Pal][Nle][X2][Nle][NMe3Pal][X1][PhLac][NMeAha])) | 3480 |
| CCCC[C@@H]1NC(=O)[C@H](Cc2cccnc2)NC(=O)[C@H](C)N(C)C(=O)[C@H](Cc2ccc(O)cc2)NC(=O)C23CC(CNC(=O)[C@H](Cc4cccnc4)N(C)C(=O)[C@H](CCCC)NC(=O)[C@H](Cc4ccccc4F)NC1=O)(C2)C3 [compound 168, cyclo(Y-NMeA-3Pal-Nle-Phe2F-Nle-NMe3Pal-amBCP)] (cyclo(Y[NMeA][3Pal][Nle][Phe(2-F)][Nle][NMe3Pal][X1])) | 46400 |
| CC(C)CC[C@@H]1NC(=O)[C@H](Cc2cccnc2F)NC(=O)[C@H](CC2CC2)NC(=O)[C@H](Cc2cncnc2)NC(=O)[C@H](C)N(C)C(=O)[C@H](Cc2ccccc2)OC(=O)C23CC(CNC(=O)[C@H](Cc4ccccc4)N(C)C1=O)(C2)C3 [compound 215, cyclo(FLac-NMeA-PyrimAla-cPrA-3Pal2F-hL-NMeF-amBCP)] (cyclo([Ala(cPr)][X46][hLeu][NMeF][X1][PhLac][NMeA][Ala(pyrimidin-5-yl)])) | 4180 |
| CCCC[C@@H]1NC(=O)[C@H](Cc2ccccc2F)NC(=O)[C@H](CC2CCCC2)NC(=O)[C@H](Cc2cncnc2)NC(=O)[C@H](C)N(C)C(=O)[C@H](Cc2ccccc2)OC(=O)C23CC(CNC(=O)[C@H](Cc4cccnc4)N(C)C1=O)(C2)C3 [compound 126, cyclo(FLac-NMeA-PyrimAla-cPeA-Phe2F-Nle-NMe3Pal-amBCP)] (cyclo([Ala(cPent)][Phe(2-F)][Nle][NMe3Pal][X1][PhLac][NMeA][Ala(pyrimidin-5-yl)])) | 17400 |
| C[C@H]1C(=O)N[C@@H](Cc2cncnc2)C(=O)N[C@@H](CC2CC2)C(=O)N[C@@H](Cc2ccccc2F)C(=O)N[C@@H](CCC(C)(F)F)C(=O)N(C)[C@@H](Cc2ccccc2)C(=O)NCC23CC(C2)(C3)C(=O)O[C@@H](Cc2ccccc2)C(=O)N1C [compound 276, cyclo(FLac-NMeA-PyrimAla-cPrA-Phe2F-Nle3F2-NMeF-amBCP)] (cyclo([Ala(cPr)][Phe(2-F)][Nle(5,5-F2)][NMeF][X1][PhLac][NMeA][Ala(pyrimidin-5-yl)])) | 666 |
| CCCC[C@@H]1NC(=O)[C@H](Cc2cncnc2)NC(=O)[C@H](CCCn2ccnc2)N(C)C(=O)[C@H](Cc2ccccc2)OC(=O)C23CC(CNC(=O)[C@H](Cc4cccnc4)N(C)C(=O)[C@H](CCCC)NC(=O)[C@H](Cc4ccccc4F)NC1=O)(C2)C3 [compound 240, cyclo(FLac-NMeNvalmid-PyrimAla-Nle-Phe2F-Nle-NMe3Pal-amBCP)] (cyclo([NMe3Pal][X1][PhLac][NMeNva(5-imidazol-1-yl)][Ala(pyrimidin-5-yl)][Nle][Phe(2-F)][Nle])) | > 50800 |
| CCCCC[C@@H]1NC(=O)[C@H](Cc2ccc(OC)cc2)NC(=O)[C@H](CC2CCC2)NC(=O)[C@H](Cc2cccnc2)NC(=O)[C@H](C)N(C)C(=O)[C@H](Cc2ccccc2)OC(=O)C23CC(CNC(=O)[C@H](Cc4ccccc4)N(C)C1=O)(C2)C3 [compound 227, cyclo(FLac-NMeA-3Pal-cBuA-TyrOMe-Ahp-NMeF-amBCP)] (cyclo([3Pal][Cba]Y(Me)[Ahp(2)][NMeF][X1][PhLac][NMeA])) | 886 |
| CCCC[C@@H]1NC(=O)[C@H](Cc2ccccc2F)NC(=O)C(CC2CC(F)(F)C2)NC(=O)[C@H](Cc2cncnc2)NC(=O)[C@H](C)N(C)C(=O)[C@H](Cc2ccccc2)OC(=O)C23CC(CNC(=O)[C@H](Cc4cccnc4)N(C)C1=O)(C2)C3 (single isomer, unassigned) [compound 122, cyclo(FLac-NMeA-PyrimAla-rF2Cba-Phe2F-Nle-NMe3Pal-amBCP)] | > 50800 |
| CCCC[C@@H]1NC(=O)[C@H](Cc2ccccc2F)NC(=O)[C@H](CCN=[N+]=[N-])NC(=O)[C@H](Cc2cccnc2)NC(=O)[C@H](CCCC)N(C)C(=O)[C@H](Cc2ccccc2)OC(=O)C23CC(CNC(=O)[C@H](Cc4cccnc4)N(C)C1=O)(C2)C3 [compound 243, cyclo(FLac-NMeNle-3Pal-DabN3-Phe2F-Nle-NMe3Pal-amBCP)] (cyclo([3Pal][Aha][Phe(2-F)][Nle][NMe3Pal][X1][PhLac][NMeNle])) | 21700 |
| CC(C)CC[C@@H]1NC(=O)[C@H](Cc2cccc(F)c2)NC(=O)[C@H](CC2CCC2)NC(=O)[C@H](Cc2cncnc2)NC(=O)[C@H](C)N(C)C(=O)[C@H](Cc2ccccc2)OC(=O)C23CC(CNC(=O)[C@H](Cc4ccccc4)N(C)C1=O)(C2)C3 [compound 303, cyclo(FLac-NMeA-PyrimAla-cBuA-Phe3F-hL-NMeF-amBCP)] (cyclo([Cba][Phe(3-F)][hLeu][NMeF][X1][PhLac][NMeA][Ala(pyrimidin-5-yl)])) | 806 |

target: Biotin-labeled KRAS-G12D protein (UniProt P01116-2 1-169, limits assumed, biotin label (site not stated); loaded with BODIPY-GDP); assay: cell-based or functional assay; details: not given

| Molecule | SOS assay EC50 [nM] |
| --- | --- |
| cyclo(F-R-d3Pal-cBuA-TyrOMe-Nle-NMeF-Smcysteamine-C1Ac) (peptide) | 37.8 |
| cyclo(F-NO2IMNva-d3Pal-cBuA-Phe2F-Nle-NMe3Pal-amBCP) (peptide) | 242 |
| cyclo(F-NMeR-d3Pal-NMeNle-Phe2F-Nle-NMe3Pal-amBCP) (peptide) | 1200 |
| cyclo(F-DabN3-3Pal-Nle-Phe2F-Nle-NMe3Pal-c3amCb1c) (peptide) | 830 |
| cyclo(Phe34F2-R-4Pal-L-TyrOMe-Nva-NMeF-dC1-C1Ac) (peptide) | 2770 |
| cyclo(F-NMeDabN3-3Pal-Nle-Phe2F-Nle-NMe3Pal-amBCP) (peptide) | 267 |
| cyclo(F-R-PyrimAla-cBuA-Phe2F-Nle-NMe3Pal-aMeC1-C1Ac) (peptide) | 0.998 |
| cyclo(F-R-3Pal-cBuA-SerOMe-Nle-NMeF-aMeC1-C1Ac) (peptide) | 943 |
| cyclo(F-R-3Pal-Nle-TyrOMe-Nle-NMeF-cBuTE-C1Ac) (peptide) | 3440 |
| cyclo(F-R-3Pal-Nle-TyrOMe-Nle-NMeF-bhcLeu) (peptide) | 193 |
| cyclo(F-R-hS-cBuA-Phe2F-Nle-NMeF-aMeC1-C1Ac) (peptide) | 503 |
| cyclo(Phe4F-R-4Pal-Nle-TyrOMe-Nle-NMeF-Cysteamine-C1Ac) (peptide) | 432 |
| cyclo(F-baceNva-d3Pal-cBuA-Phe2F-Nle-NMe3Pal-amBCP) (peptide) | 7.56 |

Continued, values first:

| SOS assay EC50 [nM] | Molecule |
| --- | --- |
| 935 | cyclo(INal-R-4Pal-L-TyrOMe-Nva-NMeF-dC1-C1Ac) (peptide) |
| 1170 | cyclo(Phe4F-R-4Pal-L-TyrOMe-Nva-NMeF-dC1-C1Ac) (peptide) |
| 7760 | cyclo(NMeF-NMeNvalmid-3Pal-Nle-Phe2F-LysN3-NMe3Pal-c3amCb1c) (peptide) |
| 299 | cyclo(F-R-3Pal-cBuA-TyrOMe-RdHagNMeHag-aMeC-C1Ac) (peptide) |
| 222 | cyclo(dF-R-3Pal-Nie-TyrOMe-Nle-NMeF-c3amCblc) (peptide) |
| 612 | cyclo(F-NMeNvalmid-3Pal-Nle-Phe2F-LysN3-NMe3Pal-c3amCblc) (peptide) |
| 3.72 | cyclo(FLac-NMeA~PyrimAla-cPrA-3Pal6F-hL-NMeF-amBCP) (peptide) |
| 7340 | cyclo(F-R-3Pal-cBuA-TyrOMe-Nle-NMeF-spiro44) (peptide) |
| 2820 | cyclo(F-R-3Pal-cBuA-TyrOMe-124triazole-dC~C1Ac) (peptide) |
| 117 | cyclo(F-R-3Pal-Nle-TyrOMe-Nle-NMeF-cBuAc) (peptide) |
| 1230 | cyclo(F-IPG-d3Pal-cBuA-Phe2F-Nle-NMe3Pal-amBCP) (peptide) |
| 946 | cyclo(F-R-3Pal-Nle-all-Nle-NMe3Pal-aMeC1-C1Ac (peptide) |
| 526 | cyclo(F-R-3Pal-Nle-deHLeu-Nle-NMe3Pal-aMeC1-C1Ac) (peptide) |
| 7140 | {CH2CO}-FRYLV[Ahp(2)][NMeF][dC] (thioether N-8 (inferred); not fully specified (C-terminus); printed as cyclo(F-R-Y-L-V-Ahp-NMeF-dC-C1Ac)) [cyclo(F-R-Y-L-V-Ahp-NMeF-dC-C1Ac)] |

Reference: patent US20260001914A1, “MACROCYCLIC PEPTIDES TARGETING KRAS” (Merck Sharp & Dohme LLC, priority 2022, published 2026)
